Assays:
Assay in all cases: SPR
[1] = molecular target: VRC01 antibody derived from HEK cells (VRC01HEK) (human)
[2] = molecular target: VRC01 co‐expressed with human β1,4‐galactosyltransferase in the ΔXT/FT plant line (VRC01Gal) (human)
[3] = molecular target: VRC01 expressed in the ΔXT/FT N. benthamiana plant line (VRC01ΔXF) (human)
[4] = molecular target: VRC01 expressed transiently in WT N. benthamiana (VRC01WT) (human)
VRC01 expressed transiently in WT N. benthamiana (VRC01WT) (human), sequence (light, as listed by the source, chain 2 of 2, other chains not shown): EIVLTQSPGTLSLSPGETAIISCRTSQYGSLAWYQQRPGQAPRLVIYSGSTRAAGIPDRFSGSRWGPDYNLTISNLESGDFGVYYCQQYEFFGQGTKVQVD

VRC01 co‐expressed with human β1,4‐galactosyltransferase in the ΔXT/FT plant line (VRC01Gal) (human), sequence (light, as listed by the source, chain 2 of 2, other chains not shown): as above
VRC01 antibody derived from HEK cells (VRC01HEK) (human), sequence (light, as listed by the source, chain 2 of 2, other chains not shown): as above
VRC01 expressed in the ΔXT/FT N. benthamiana plant line (VRC01ΔXF) (human), sequence (light, as listed by the source, chain 2 of 2, other chains not shown): as above

Kd [1]: 937 nM
Kd [2]: 1500 nM
Kd [3]: 780 nM
Kd [4]: > 7000 nM
B1: recombinant human FcγRIIa ectodomain, polymorphic variant R131 (receptor)
chain: QAAAPPKAVLKLEPPWINVLQEDSVTLTCQGARSPESDSIQWFHNGNLIPTHTQPSYRFKANNNDSGEYTCQTGQTSLSDPVHLTVLSEWLVLQTPHLEFQEGETIMLRCHSWKDKPLVKVTFFQNGKSQKFSRLDPTFSIPQANHSHSGDYHCTGNIGYTLFSSKPVTITVQVPSMGSSSPMG
modifications: not checked

Reference: PMC6953194
